# In PMC12088422 (Proceedings of the National Academy of Sciences of the …, 2025):
# Target: the molecule itself
# Assay: SEC-MALS
protein,measurement,value
"Pseudomonas aeruginosa PAO1 glutamyl-tRNA synthetase (enzyme, UniProt Q9XCL6 1-494, looked up) MTTVRTRIAPSPTGDPHVGTAYIALFNLCFARQHGGQFILRIEDTDQLRSTRESEQQIYDALRWLGIEWDEGPDVGGPHGPYRQSERGHIYKKYSDELVEKGHAFTCFCTPERLDAVRAEQMARKETPRYDGHCMHLPKDEVQRRLAAGESHVTRMKVPTEGVCVVPDMLRGDVEIPWDRMDMQVLMKADGLPTYFLANVVDDHLMGITHVLRGEEWLPSAPKLIKLYEYFGWEQPQLCYMPLLRNPDKSKLSKRKNPTSITFYERMGYLPQALLNYLGRMGWSMPDEREKFTLAEMIEHFDLSRVSLGGPIFDLEKLSWLNGQWIREQSVEEFAREVQKWALNPEYLMKIAPHVQGRVENFSQIAPLAGFFFSGGVPLDASLFEHKKLDPTQVRQVLQLVLWKLESLRQWEKERITGCIQAVAEHLQLKLRDVMPLMFPAITGHASSVSVLDAMEILGADLSRYRLRQALELLGGASKKETKEWEKIRDAIPG",stoichiometry N,2
